Reference: article doi:10.1101/2021.12.16.472980

Biological target: Suppressor of potassium transport defect 3 (SKD3), mature IMS form, residues 127-707 (human) (UniProt Q9H078)
Assay: AUC

stoichiometry N: 12
Substance: Suppressor of potassium transport defect 3 (SKD3), mature IMS form, residues 127-707 (from UniProt Q9H078 127-707) (enzyme)
